Patent US20210040193A1 (BEIJING HANMI PHARMACEUTICAL, published 2021)

Experiments:
[1] = target: T1, Recombinant human PD-1 (Beijing Sino Biological Inc., Catalog No. 10377-H08H) (human, UniProt Q15116 25-167); test: ELISA, human PD-1 coated on the plate, anti-human IgG-HRP detection
T1 construct: Bought recombinant protein

[2] = target: T1, Recombinant human PD-1 (Beijing Sino …); test: ELISA, human PD-1 coated on the plate, anti-human IgG-HRP detection; control

T1 sequence (Q15116 25-167 limits assumed): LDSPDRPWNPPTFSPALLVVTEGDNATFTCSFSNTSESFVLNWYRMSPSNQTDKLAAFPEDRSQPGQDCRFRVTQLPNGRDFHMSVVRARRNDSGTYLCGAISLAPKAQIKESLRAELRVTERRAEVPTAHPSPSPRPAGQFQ

B1: anti-PD-1 (Pembro)/VEGF (G631) heterodimeric antibody (bispecific antibody, human IgG1, kappa, N297A)
heavy 1: QVQLVQSGVEVKKPGASVKVSCKASGYTFTNYYMYWVRQAPGQGLEWMGGINPSNGGTNFNEKFKNRVTLTTDSSTTTAYMELKSLQFDDTAVYYCARRDYRFDMGFDYWGQGTTVTVSSASTKGPSVFPLAPSSKSTSGGTAALGCLVKDYFPEPVTVSWNSGALTSGVHTFPAVLQSSGLYSLSSVVTVPSSSLGTQTYICNVNHKPSNTKVDKKVEPKSCDKTHTCPPCPAPELLGGPSVFLFPPKPKDTLMISRTPEVTCVVVDVSHEDPEVKFNWYVDGVEVHNAKTKPREEQYASTYRVVSVLTVLHQDWLNGKEYKCKVSNKALPAPIEKTISKAKGQPREPQVYTLPPSRDELTKNQVSLLCLVKGFYPSDIAVEWESNGQPENNYKTTPPVLRSDGSFFLYSKLTVDKSRWQQGNVFSCSVMHEALHNHYTQKSLSLSPGK
light 1: EIVLTQSPATLSLSPGERATLSCRASKGVSTSGYSYLHWYQQKPGQAPRLLIYLASYLESGVPARFSGSGSGTDFTLTISSLEPEDFAVYYCQHSRDLPLTFGGGTKVEIKRTVAAPSVFIFPPSDEQLKSGTASVVCLLNNFYPREAKVQWKVDNALQSGNSQESVTEQDSKDSTYSLSSTLTLSKADYEKHKVYACEVTHQGLSSPVTKSFNRGEC
heavy 2: EVQLVESGGGLVQPGGSLRLSCAASGFTISDYWIHWVRQAPGKGLEWVAGITPAGGYTYYADSVKGRFTISADTSKNTAYLQMNSLRAEDTAVYYCARFVFFLPYAMDYWGQGTLVTVSSASTKGPSVFPLAPSSKSTSGGTAALGCLVKDYFPEPVTVSWNSGALTSGVHTFPAVLQSSGLYSLSSVVTVPSSSLGTQTYICNVNHKPSNTKVDKKVEPKSCDKTHTCPPCPAPELLGGPSVFLFPPKPKDTLMISRTPEVTCVVVDVSHEDPEVKFNWYVDGVEVHNAKTKPREEQYASTYRVVSVLTVLHQDWLNGKEYKCKVSNKALPAPIEKTISKAKGQPREPQVYTEPPSRDELTKNQVSLTCLVKGFYPSDIAVEWESNGQPENNYKTTPPVLDSDGSFFLLSVLTVDKSRWQQGNVFSCSVMHEALHNHYTQKSLSLSPGK
light 2: not shown
notes: Heterodimer of two half antibodies; it is not spelled out for this molecule; also called anti-PD-1 (Pembro)/VEGF (G631) heterodimer antibody
Does B1 bind [1]?
Result: binds

B2: anti-PD-1 (BJHM)/VEGF (G631) heterodimeric antibody (bispecific antibody, human IgG1, kappa, N297A)
heavy 1: EVNLVESGGGLVQPGGSLRLSCAASGFTFSSYGMSWVRQAPGKGLEWVASISGGGRYTYYPDSMKGRFTISRDNSKNNLYLQMNSLRAEDTAVYYCVYEYFYTMDYWGQGTLVTVSSASTKGPSVFPLAPSSKSTSGGTAALGCLVKDYFPEPVTVSWNSGALTSGVHTFPAVLQSSGLYSLSSVVTVPSSSLGTQTYICNVNHKPSNTKVDKKVEPKSCDKTHTCPPCPAPELLGGPSVFLFPPKPKDTLMISRTPEVTCVVVDVSHEDPEVKFNWYVDGVEVHNAKTKPREEQYASTYRVVSVLTVLHQDWLNGKEYKCKVSNKALPAPIEKTISKAKGQPREPQVYTLPPSRDELTKNQVSLLCLVKGFYPSDIAVEWESNGQPENNYKTTPPVLRSDGSFFLYSKLTVDKSRWQQGNVFSCSVMHEALHNHYTQKSLSLSPGK
light 1: DIVLTQSPATLSLSPGERATLSCRASQSISNNLHWYQQKPGQAPRLLIRFASQSISGIPARFSGSGSGTDFTLTISSLEPEDFAVYFCQQSDNWPLTFGGGTKVEIKRTVAAPSVFIFPPSDEQLKSGTASVVCLLNNFYPREAKVQWKVDNALQSGNSQESVTEQDSKDSTYSLSSTLTLSKADYEKHKVYACEVTHQGLSSPVTKSFNRGEC
heavy 2: EVQLVESGGGLVQPGGSLRLSCAASGFTISDYWIHWVRQAPGKGLEWVAGITPAGGYTYYADSVKGRFTISADTSKNTAYLQMNSLRAEDTAVYYCARFVFFLPYAMDYWGQGTLVTVSSASTKGPSVFPLAPSSKSTSGGTAALGCLVKDYFPEPVTVSWNSGALTSGVHTFPAVLQSSGLYSLSSVVTVPSSSLGTQTYICNVNHKPSNTKVDKKVEPKSCDKTHTCPPCPAPELLGGPSVFLFPPKPKDTLMISRTPEVTCVVVDVSHEDPEVKFNWYVDGVEVHNAKTKPREEQYASTYRVVSVLTVLHQDWLNGKEYKCKVSNKALPAPIEKTISKAKGQPREPQVYTEPPSRDELTKNQVSLTCLVKGFYPSDIAVEWESNGQPENNYKTTPPVLDSDGSFFLLSVLTVDKSRWQQGNVFSCSVMHEALHNHYTQKSLSLSPGK
light 2: not shown
Does B2 bind [1]?
Result: binds

B3: anti PD-1(BJHM)/VEGF(Bevaci) heterodimeric antibody (bispecific antibody, human IgG1, kappa, N297A)
heavy 1: EVNLVESGGGLVQPGGSLRLSCAASGFTFSSYGMSWVRQAPGKGLEWVASISGGGRYTYYPDSMKGRFTISRDNSKNNLYLQMNSLRAEDTAVYYCVYEYFYTMDYWGQGTLVTVSSASTKGPSVFPLAPSSKSTSGGTAALGCLVKDYFPEPVTVSWNSGALTSGVHTFPAVLQSSGLYSLSSVVTVPSSSLGTQTYICNVNHKPSNTKVDKKVEPKSCDKTHTCPPCPAPELLGGPSVFLFPPKPKDTLMISRTPEVTCVVVDVSHEDPEVKFNWYVDGVEVHNAKTKPREEQYASTYRVVSVLTVLHQDWLNGKEYKCKVSNKALPAPIEKTISKAKGQPREPQVYTLPPSRDELTKNQVSLLCLVKGFYPSDIAVEWESNGQPENNYKTTPPVLRSDGSFFLYSKLTVDKSRWQQGNVFSCSVMHEALHNHYTQKSLSLSPGK
light 1: DIVLTQSPATLSLSPGERATLSCRASQSISNNLHWYQQKPGQAPRLLIRFASQSISGIPARFSGSGSGTDFTLTISSLEPEDFAVYFCQQSDNWPLTFGGGTKVEIKRTVAAPSVFIFPPSDEQLKSGTASVVCLLNNFYPREAKVQWKVDNALQSGNSQESVTEQDSKDSTYSLSSTLTLSKADYEKHKVYACEVTHQGLSSPVTKSFNRGEC
heavy 2: EVQLVESGGGLVQPGGSLRLSCAASGYTFTNYGMNWVRQAPGKGLEWVGWINTYTGEPTYAADFKRRFTFSLDTSKSTAYLQMNSLRAEDTAVYYCAKYPHYYGSSHWYFDVWGQGTLVTVSSASTKGPSVFPLAPSSKSTSGGTAALGCLVKDYFPEPVTVSWNSGALTSGVHTFPAVLQSSGLYSLSSVVTVPSSSLGTQTYICNVNHKPSNTKVDKKVEPKSCDKTHTCPPCPAPELLGGPSVFLFPPKPKDTLMISRTPEVTCVVVDVSHEDPEVKFNWYVDGVEVHNAKTKPREEQYASTYRVVSVLTVLHQDWLNGKEYKCKVSNKALPAPIEKTISKAKGQPREPQVYTEPPSRDELTKNQVSLTCLVKGFYPSDIAVEWESNGQPENNYKTTPPVLDSDGSFFLLSVLTVDKSRWQQGNVFSCSVMHEALHNHYTQKSLSLSPGK
light 2: not shown
Does B3 bind [1]?
Result: binds

B4: PD-1 (BJHM) monoclonal antibody (antibody, V domains shown)
VH: EVNLVESGGGLVQPGGSLRLSCAASGFTFSSYGMSWVRQAPGKGLEWVASISGGGRYTYYPDSMKGRFTISRDNSKNNLYLQMNSLRAEDTAVYYCVYEYFYTMDYWGQGTLVTVSS
VL: DIVLTQSPATLSLSPGERATLSCRASQSISNNLHWYQQKPGQAPRLLIRFASQSISGIPARFSGSGSGTDFTLTISSLEPEDFAVYFCQQSDNWPLTFGGGTKVEIK
notes: Control monoclonal antibody; also called anti-human PD-1 antibody PD-1(BJHM)
Does B4 bind [2]?
Result: binds
